According to patent publication US20200247886A1 (ZLIP, published 2020):
Each block holds one binder with its values, some of them ahead of it.

What was measured:
CHO/mCD47-GFP = target: T1, CHO/mCD47-GFP (mouse, UniProt Q61735); experiment: flow cytometry on CHO cells expressing mouse CD47-GFP, binding percentage
T1 construct: on the cell surface; also called mouse CD47 expressed on CHO cells; CHO cell expressing mouse CD47
T1 sequence (receptor, looked up): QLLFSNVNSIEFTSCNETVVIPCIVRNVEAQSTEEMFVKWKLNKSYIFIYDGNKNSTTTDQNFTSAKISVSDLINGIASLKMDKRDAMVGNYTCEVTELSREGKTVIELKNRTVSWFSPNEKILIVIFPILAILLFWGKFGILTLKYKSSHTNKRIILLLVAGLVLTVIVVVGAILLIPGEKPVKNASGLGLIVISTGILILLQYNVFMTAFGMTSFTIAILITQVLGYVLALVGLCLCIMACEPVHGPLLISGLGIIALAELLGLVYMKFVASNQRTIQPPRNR

CD47 on monkey RBC = target: T2, CD47 on monkey RBC (Macaca fascicularis, UniProt A0A2K5X523); experiment: flow cytometry on cynomolgus monkey red blood cells expressing CD47, MFI
T2 construct: native, on red blood cells; also called cynomolgus monkey red blood cells expressing CD47

[1] = target: T3, human CD47 expressed on cells (CD47 expressing CHO cells, Jurkat, HL60, DLD1, Raji) (human, UniProt Q08722 19-292); experiment: flow cytometry on human red blood cells, MFI
T3 construct: also called CHO-CD47; IAP

[2] = target: T3, human CD47 expressed on cells (CD47 …); experiment: flow cytometry on human platelets, MFI
[3] = target: T3, human CD47 expressed on cells (CD47 …); experiment: flow cytometry on human red blood cells, donor 2, MFI
[4] = target: T3, human CD47 expressed on cells (CD47 …); experiment: flow cytometry on human platelets, donor 1, MFI
[5] = target: T3, human CD47 expressed on cells (CD47 …); experiment: flow cytometry on human platelets, donor 2, MFI
[6] = target: T3, human CD47 expressed on cells (CD47 …); experiment: flow cytometry on human red blood cells, donor 1, MFI
[7] = target: T3, human CD47 expressed on cells (CD47 …); experiment: flow cytometry SIRP-alpha blocking assay on Raji cells, MFI
[8] = target: T3, human CD47 expressed on cells (CD47 …); experiment: IC50 as grade, SIRPα blocking on Raji cells; legend +++: <1 nM
[9] = target: T3, human CD47 expressed on cells (CD47 …); experiment: flow cytometry blocking assay on Raji cells, SIRPα is the blocked ligand, MFI
[10] = target: T3, human CD47 expressed on cells (CD47 …); experiment: flow cytometry on DLD1 cells, IgG, frequency
[11] = target: T3, human CD47 expressed on cells (CD47 …); experiment: flow cytometry on DLD1 cells, IgG, MFI
[12] = target: T3, human CD47 expressed on cells (CD47 …); experiment: flow cytometry on CD47 expressing CHO cells, MFI (FL-4)

B1: ABU7 (antibody, V domains shown)
VH: EVQLQQSGPELVKPGASVKISCKASGYSFTGYYMNWVKQSPEKSLEWIGEINPSTGGTTYNQKFKAKATLTVDKSSSTAYMQLKSLTFEDSAVYYCAIYDGYEGFAYWGQGTLVTVSA
VL: DIKMTQSPSSMYASLGERVTITCKASQDIKSYLSWYQQKPWKSPKTLIYYATSLADGVPSRFSGSGSGQHYSLTISSLESDDTATYYCLQHGESPFTFGSGTKLEIK
notes: Murine hybridoma monoclonal antibody
binding result (CHO/mCD47-GFP): no binding (tested: about 0.4 ug/ml)

B2: Positive 3-IgG4-P (antibody)
heavy chain: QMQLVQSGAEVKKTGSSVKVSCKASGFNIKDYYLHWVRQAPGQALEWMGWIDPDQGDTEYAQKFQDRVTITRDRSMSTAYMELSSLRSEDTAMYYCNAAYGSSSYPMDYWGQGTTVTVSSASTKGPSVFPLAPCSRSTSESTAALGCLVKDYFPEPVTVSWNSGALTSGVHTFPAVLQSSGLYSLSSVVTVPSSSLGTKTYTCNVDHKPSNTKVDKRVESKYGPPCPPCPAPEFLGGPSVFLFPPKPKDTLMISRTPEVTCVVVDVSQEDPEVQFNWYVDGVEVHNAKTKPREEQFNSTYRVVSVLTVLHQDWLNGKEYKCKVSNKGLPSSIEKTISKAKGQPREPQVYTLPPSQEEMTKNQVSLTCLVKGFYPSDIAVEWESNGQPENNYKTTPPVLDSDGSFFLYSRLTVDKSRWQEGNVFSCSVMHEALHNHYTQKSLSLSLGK
light chain: QMTQSPSAMSASVGDRVTITCKASQDIHRYLSWFQQKPGKVPKHLIYRANRLVSGVPSRFSGSGSGTEFTLTISSLQPEDFATYYCLQYDEFPYTFGGGTKVEIKRTVAAPSVFIFPPSDEQLKSGTASVVCLLNNFYPREAKVQWKVDNALQSGNSQESVTEQDSKDSTYSLSSTLTLSKADYEKHKVYACEVTHQGLSSPVTKSFNRGEC
EC50 (read off the curve) (CD47 on monkey RBC): ~0.2 µg/mL | EC50 (read off the curve) [1]: ~4 nM | EC50 (read off the curve) [2]: ~2 nM

B3: Positive 3-IgG4-PE (antibody)
heavy chain: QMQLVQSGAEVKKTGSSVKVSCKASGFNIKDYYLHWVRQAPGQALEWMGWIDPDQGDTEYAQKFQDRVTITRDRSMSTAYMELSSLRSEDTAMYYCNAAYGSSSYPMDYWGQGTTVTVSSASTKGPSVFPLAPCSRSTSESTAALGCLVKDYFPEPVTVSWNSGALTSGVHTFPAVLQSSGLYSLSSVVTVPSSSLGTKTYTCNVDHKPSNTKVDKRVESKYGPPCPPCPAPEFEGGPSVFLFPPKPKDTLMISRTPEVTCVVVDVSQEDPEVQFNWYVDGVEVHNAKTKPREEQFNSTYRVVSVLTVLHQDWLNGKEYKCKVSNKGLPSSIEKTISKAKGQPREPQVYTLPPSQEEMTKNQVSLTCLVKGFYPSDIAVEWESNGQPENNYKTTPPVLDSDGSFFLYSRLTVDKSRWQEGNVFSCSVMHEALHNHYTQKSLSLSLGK
light chain: QMTQSPSAMSASVGDRVTITCKASQDIHRYLSWFQQKPGKVPKHLIYRANRLVSGVPSRFSGSGSGTEFTLTISSLQPEDFATYYCLQYDEFPYTFGGGTKVEIKRTVAAPSVFIFPPSDEQLKSGTASVVCLLNNFYPREAKVQWKVDNALQSGNSQESVTEQDSKDSTYSLSSTLTLSKADYEKHKVYACEVTHQGLSSPVTKSFNRGEC
EC50 (read off the curve) (CD47 on monkey RBC): ~0.1 µg/mL | EC50 (read off the curve) [1]: ~4 nM | EC50 (read off the curve) [2]: ~2 nM

B4: H-ABU44 (antibody, V domains shown)
VH: QVQLVQSGAEVKKPGASVKVSCKASGYSFTNYHIHWVRQAPGQRLEWIGWIYPGSGNTKYNEKFKGRATLTADTSASTAYMELSSLRSEDTAVYYCARYDYDLYLHSWGQGTLVTVSS
VL: DIQITQSPSSVSASVGDRVTITCHASQNINVWLSWYQQKPGKAPKLLIYKASNLHTGVPSRFSGSGSGTGFTLTISSLQPEDFATYYCQQGQSYPLTFGQGTKLEIK
EC50 (read off the curve) [3]: ~0.2 nM | EC50 (read off the curve) [4]: ~0.1 nM | EC50 (read off the curve) [5]: ~0.1 nM | EC50 (read off the curve) [6]: ~0.2 nM

B5: H-ABU 39 (antibody, V domains shown)
VH: QVQLVQSGAEVKKPGASVKVSCKTSGYSFTNYWMQWVRQAPGQGLEWIGMIDPSDSESRLNQKFKDRATLTVDTSTSTAYMELSSLRSEDTAVYYCARRGSPMITSFAYWGQGTLVTVSS
VL: DVQITQSPSSLSASVGDRVTITCRASKNIGKYLAWFQQKPGKTNKLLIYSGSTLQSGIPSRFSGSGSGTDFTLTISSLQPEDFATYYCQQHNEYPYTFGGGTKVEIK
notes: Humanized antibody
IC50 (read off the curve) [7]: ~0.3 nM

B6: H-ABU 43 (antibody, V domains shown)
VH: QVQLVQSGAEVKKPGASVKVSCKTSGYSFTNYWMQWVRQAPGQGLEWMGMIDPSDSESRLNQKFKDRVTMTRDTSTSTAYMELSSLRSEDTAVYYCARRGSPMITSFAYWGQGTLVTVSS
VL: DVQITQSPSSLSASVGDRVTITCRASKNIGKYLAWFQQKPGKTNKLLIYSGSTLQSGIPSRFSGSGSGTDFTLTISSLQPEDFATYYCQQHNEYPYTFGGGTKVEIK
notes: Humanized antibody
EC50 (read off the curve) [3]: ~1 nM | EC50 (read off the curve) [4]: ~0.6 nM | EC50 (read off the curve) [5]: ~0.6 nM | EC50 (read off the curve) [6]: ~1 nM | IC50 (read off the curve) [7]: ~0.3 nM

B8: H-ABU 37 (antibody, V domains shown)
VH: QVQLVQSGAEVKKPGASVKVSCKASGYTFTNYWMQWVRQAPGQGLEWMGMIDPSDSESRLNQKFKDRVTMTRDTSTSTVYMELSSLRSEDTAVYYCARRGSPMITSFAYWGQGTLVTVSS
VL: DVQITQSPSSLSASVGDRVTITCRASKNIGKYLAWFQQKPGKTNKLLIYSGSTLQSGIPSRFSGSGSGTDFTLTISSLQPEDFATYYCQQHNEYPYTFGGGTKVEIK
notes: Humanized antibody
IC50 (read off the curve) [7]: ~0.3 nM

B10: H-ABU 6 (antibody, V domains shown)
VH: QVQLVQSGAEVKKPGASVKVSCKASGYTFTDFYINWVRQAPGQRLEWMGWIYLGSGNTKYNEKFKGRVTITRDTSASTAYMELSSLRSEDTAVYYCARREERGFAYWGQGTLVTVSS
VL: DIVMTQSPDSLAVSLGERATINCKSSQSLLSSNQKNYLAWYQQKPGQPPKLLIYWASVRDSGVPDRFSGSGSGTDFTLTISSLQAEDVAVYYCQQFYSYPLTFGQGTKVEIK
IC50 [8]: < 1 nM | IC50 (read off the curve) [9]: ~0.4 nM

B11: H-ABU10-IgG4-P (antibody)
light chain: DIVMTQSPDSLAVSLGERATINCKSSQSLVSSSQKNYLAWYQQKPGQPPKLLIYWASVRDSGVPDRFSGSGSGTDFTLTISSLQAEDVAVYYCQQYYSYPLTFGQGTKVEIK
heavy chain: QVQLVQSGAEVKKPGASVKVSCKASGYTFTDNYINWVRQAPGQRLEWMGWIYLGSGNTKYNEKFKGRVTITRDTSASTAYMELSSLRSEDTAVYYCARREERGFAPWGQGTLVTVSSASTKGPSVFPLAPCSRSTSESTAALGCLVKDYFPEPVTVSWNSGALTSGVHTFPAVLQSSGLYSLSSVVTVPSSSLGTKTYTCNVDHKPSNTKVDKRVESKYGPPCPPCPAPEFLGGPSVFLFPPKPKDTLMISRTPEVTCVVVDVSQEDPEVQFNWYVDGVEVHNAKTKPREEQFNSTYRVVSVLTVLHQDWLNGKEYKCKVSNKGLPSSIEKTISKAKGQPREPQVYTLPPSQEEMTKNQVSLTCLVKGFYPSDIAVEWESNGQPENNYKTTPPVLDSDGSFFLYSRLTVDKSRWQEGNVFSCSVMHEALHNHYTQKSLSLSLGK
EC50 (read off the curve) [1]: ~4 nM | EC50 (read off the curve) [2]: ~2 nM

B15: C-ABU4 (antibody, human IgG4 S228P, kappa, V domains shown)
VH: QVQLQQSGPQLVRPGASVKISCKTSGYSFTNYWMQWVKQRPGQGLEWIGMIDPSDSESRLNQKFKDKATLTVDKSSSTAYMQLSSPTFEDSAVYYCARRGSPMITSFAYWGQGTLVTVSA
VL: DVQITQSPSFLAASPGETITINCRASKNIGKYLAWFQEKPGKTNKLLIYSGSTLQSGIPSRFSGSGSGTDFTLTISSLEPEDFAIYYCQQHNEYPYTFGGGTKLEIKR
notes: Human chimeric IgG4 antibody
EC50 (read off the curve) [12]: ~1 nM

Other lines, results leading:

EC50 (read off the curve) [3]: ~1 nM | EC50 (read off the curve) [4]: ~0.6 nM | EC50 (read off the curve) [5]: ~0.6 nM | EC50 (read off the curve) [6]: ~1 nM | IC50 (read off the curve) [7]: ~0.3 nM
B7: H-ABU 41 (antibody, V domains shown)
VL: DVQITQSPSSLSASVGDRVTITCRASKNIGKYLAWFQQKPGKTNKLLIYSGSTLQSGIPSRFSGSGSGTDFTLTISSLQPEDFATYYCQQHNEYPYTFGGGTKVEIK
VH: QVQLQQSGAEVKKPGASVKVSCKTSGYSFTNYWMQWVRQAPGQGLEWIGMIDPSDSESRLNQKFKDKATLTVDKSTSTAYMELSSLRSEDTAVYYCARRGSPMITSFAYWGQGTLVTVSS
notes: Humanized antibody

IC50 (read off the curve) [7]: ~0.3 nM
B9: H-ABU 38 (antibody, V domains shown)
VH: QVQLVQSGAEVKKPGASVKVSCKASGYTFTNYWMQWVRQAPGQGLEWIGMIDPSDSESRLNQKFKDRATLTVDTSTSTVYMELSSLRSEDTAVYYCARRGSPMITSFAYWGQGTLVTVSS
VL: DVQITQSPSSLSASVGDRVTITCRASKNIGKYLAWFQQKPGKTNKLLIYSGSTLQSGIPSRFSGSGSGTDFTLTISSLQPEDFATYYCQQHNEYPYTFGGGTKVEIK
notes: Humanized antibody

IC50 [8]: < 1 nM | IC50 (read off the curve) [9]: ~0.3 nM
B12: H-ABU 4 (antibody, V domains shown)
VH: QVQLVQSGAEVKKPGASVKVSCKASGYTFTDIYINWVRQAPGQRLEWMGWIYLGSGNVKYNEKFKGRVTITRDTSASTAYMELSSLRSEDTAVYYCARREDRGFAYWGQGTLVTVSS
VL: DIVMTQSPDSLAVSLGERATINCKSSQSLLSSNQKYYLAWYQQKPGQPPKLLIYWASTRDSGVPDRFSGSGSGTDFTLTISSLQAEDVAVYYCQQFYSYPLTFGQGTKVEIK

EC50 (read off the curve) [1]: ~4 nM | EC50 (read off the curve) [2]: ~2 nM
B13: H-ABU10-IgG4-PE (antibody)
light chain: DIVMTQSPDSLAVSLGERATINCKSSQSLVSSSQKNYLAWYQQKPGQPPKLLIYWASVRDSGVPDRFSGSGSGTDFTLTISSLQAEDVAVYYCQQYYSYPLTFGQGTKVEIK
heavy chain: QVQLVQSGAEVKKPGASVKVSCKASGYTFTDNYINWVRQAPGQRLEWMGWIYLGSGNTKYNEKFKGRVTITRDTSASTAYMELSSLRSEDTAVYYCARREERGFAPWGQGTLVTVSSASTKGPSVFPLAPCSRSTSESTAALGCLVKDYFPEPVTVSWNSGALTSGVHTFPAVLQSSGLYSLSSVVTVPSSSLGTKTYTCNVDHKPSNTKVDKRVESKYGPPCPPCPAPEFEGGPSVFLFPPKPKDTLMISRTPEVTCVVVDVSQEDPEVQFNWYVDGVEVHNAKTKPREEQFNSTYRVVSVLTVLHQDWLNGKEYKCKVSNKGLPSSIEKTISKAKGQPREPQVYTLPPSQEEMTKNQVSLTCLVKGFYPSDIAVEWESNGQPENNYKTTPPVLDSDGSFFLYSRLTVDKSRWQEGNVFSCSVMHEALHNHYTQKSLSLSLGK

EC50 (read off the curve) [10]: ~0.4 nM | EC50 (read off the curve) [11]: ~4 nM
B14: ABU16 (IgG) (antibody, V domains shown)
VH: RVQLQQSGAELVRPGTSVKVSCKASAYAFTNYLIEWVKKRPGQGLEWIGVINPGSGGTNYNEKFKGKATLTADKSSSTAYMQLSSLTSEDSAVYFCARGDGYGSLFAYWGQGTLVTVSA
VL: RHCFNQSPAIMSASPGEKVTMTCSASSSVSYMHWYQQKSGTSPKRWIYDTSNLASGVPVRFSGSGSGTSYSLTISRMEAEDAATYYCQQWSNYPFTFGSGTKLELK
